Reference: US20200181617, “CHEMICALLY MODIFIED RNA APTAMERS AND USES THEREOF” (ALBERT EINSTEIN COLLEGE OF MEDICINE, published 2020)

T1: LRIG1 (UniProt Q96JA1 Q96JA1:35-794)
T1 sequence: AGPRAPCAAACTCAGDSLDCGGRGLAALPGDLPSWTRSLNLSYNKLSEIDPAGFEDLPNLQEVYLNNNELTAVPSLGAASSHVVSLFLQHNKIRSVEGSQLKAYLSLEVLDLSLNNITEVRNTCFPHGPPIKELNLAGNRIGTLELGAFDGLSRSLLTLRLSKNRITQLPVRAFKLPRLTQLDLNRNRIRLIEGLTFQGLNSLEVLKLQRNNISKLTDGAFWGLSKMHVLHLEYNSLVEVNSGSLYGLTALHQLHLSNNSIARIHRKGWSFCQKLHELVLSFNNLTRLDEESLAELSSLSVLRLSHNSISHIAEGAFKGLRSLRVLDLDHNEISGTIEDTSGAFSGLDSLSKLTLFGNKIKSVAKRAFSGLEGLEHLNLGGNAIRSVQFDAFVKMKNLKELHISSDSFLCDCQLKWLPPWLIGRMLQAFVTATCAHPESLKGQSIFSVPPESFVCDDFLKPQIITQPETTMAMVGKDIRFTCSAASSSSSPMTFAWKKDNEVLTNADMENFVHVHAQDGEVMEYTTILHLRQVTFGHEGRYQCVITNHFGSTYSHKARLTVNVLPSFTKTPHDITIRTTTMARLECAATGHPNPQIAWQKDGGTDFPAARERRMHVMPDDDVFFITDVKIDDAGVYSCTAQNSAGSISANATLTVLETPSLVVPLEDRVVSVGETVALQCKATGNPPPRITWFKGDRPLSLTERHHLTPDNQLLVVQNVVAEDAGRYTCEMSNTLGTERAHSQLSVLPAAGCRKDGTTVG

B1: Lrig1-Rd8-08 (clone 8) (XNA)
DNA: GGGAAGGAGAGACGACGCGACACCCCCTTGAGTCACAGGTGTGTGAGCGCCGACGGCTTGGTACAGCAGACAAGACCGGACAAGAAGC
modifications: 2'-F G; 2'-OMe A; 2'-OMe C; all T positions are 5-modified dU (Phe-dU)
B2: Lrig1-Rd8-11 (clone 11) (XNA)
DNA: GGGAAGGAGAGACGACGCGACACCCGCTTCACCGCTGTGTAACTGCGACGACGGACGTCAGATCAGCAGACAAGACCGGACAAGAAGC
modifications: 2'-F G; 2'-OMe A; 2'-OMe C; all T positions are 5-modified dU (Phe-dU)

Molecular target: T1, LRIG1
Experiment: flow; apparent; protein on Dynal His beads; no signal on non-protein beads
Conditions: tags: His-tagged, immobilized on magnetic His-capture beads (Dynal His beads)
Description: Using a N40 library containing ˜10″ unique sequences, transcribed using a mixture of Phe-dUTP, 2′OMe ATP, 2′OMe CTP and 2′F GTP, SELEX was initiated against the protein LRIG1. In short, the His-tagged protein was immobilized on 1 μm, magnetic His-capture beads and incubated with the library for 30 minutes at 37° C. after which the beads were washed 3 times with buffer, and then any bound library molecules eluted by the addition of wash buffer containing the denaturant guanidine hydrochloride (4M). Following elution the library molecules were recovered by ethanol precipitation and reverse transcribed into DNA using SSIV under optimized conditions (2M betaine). The resulting ssDNA was then amplified by PCR and the resulting dsDNA then transcribed back in to modified RNA by transcription using the LAL-polymerase and a mixture of Phe-dUTP, 2′OMe ATP, 2′OMe CTP and 2′F GTP under the present optimized conditions. The process was repeated for 8 rounds of selection. A fluorescently labeled library was used to monitor the selection by flow cytometry. […] Importantly, when similar experiments were performed using non-protein target loaded beads, no signal over background was observed. […] Subsequent experiments were carried out to clone and sequence the round 6, 7 and 8 population and test individual molecules identified from the screen. […]

| Binder | Kd [nM] |
| --- | --- |
| B1 | ~25 |
| B2 | ~35 |
